{"source": "the supplement of paper PMC10567573", "parents": {"B1": {"name": "HMOX1 (parent)", "chain": "YHIYVALEEEIERNKESPVFAPVY"}, "B2": {"name": "IFRG15 (parent)", "chain": "INRADYCPECYPDNPANRSLVLPW"}}}
{"variants_of": "B1", "test": "protein stability index of a GFP-peptide fusion (GPS, HEK-293T) (PSI 1-6); higher = more stable", "settings": "c terminus: a fixed tail appended"}
{"variant": "YHIYVALEEEIERNKESPVFAPVN", "note": "[Y24N]", "protein stability index": 2.9}
{"variant": "YHIYVALEEEIERNKESPVFAPVA", "note": "[Y24A]", "protein stability index": 3.11}
{"variant": "YHIYVALEEEIERNKESPVFAPVL", "note": "[Y24L]", "protein stability index": 2.31}
{"variant": "YHIYVALEEEIERNKESPVFAPVH", "note": "[Y24H]", "protein stability index": 2.48}
{"variant": "YHIYVALEEEIERNKESPVFAPVF", "note": "[Y24F]", "protein stability index": 1.78}
{"variant": "YHIYVALEEEIERNKESPVFAPVS", "note": "[Y24S]", "protein stability index": 2.84}
{"variant": "YHIYVALEEEIERNKESPVFAPVT", "note": "[Y24T]", "protein stability index": 2.96}
{"variant": "YHIYVALEEEIERNKESPVFAPVD", "note": "[Y24D]", "protein stability index": 3.35}
{"variant": "YHIYVALEEEIERNKESPVFAPVR", "note": "[Y24R]", "protein stability index": 3.01}
{"variant": "YHIYVALEEEIERNKESPVFAPVM", "note": "[Y24M]", "protein stability index": 2.22}
{"variant": "YHIYVALEEEIERNKESPVFAPVQ", "note": "[Y24Q]", "protein stability index": 3.09}
{"variant": "YHIYVALEEEIERNKESPVFAPVC", "note": "[Y24C]", "protein stability index": 2.23}
{"variant": "YHIYVALEEEIERNKESPVFAPVV", "note": "[Y24V]", "protein stability index": 2.51}
{"variant": "YHIYVALEEEIERNKESPVFAPVW", "note": "[Y24W]", "protein stability index": 1.98}
{"variant": "YHIYVALEEEIERNKESPVFAPVK", "note": "[Y24K]", "protein stability index": 2.69}
{"variant": "YHIYVALEEEIERNKESPVFAPVI", "note": "[Y24I]", "protein stability index": 2.49}
{"variant": "YHIYVALEEEIERNKESPVFAPVG", "note": "[Y24G]", "protein stability index": 2.83}
{"variant": "YHIYVALEEEIERNKESPVFAPVP", "note": "[Y24P]", "protein stability index": 3.47}
{"variant": "YHIYVALEEEIERNKESPVFAPVE", "note": "[Y24E]", "protein stability index": 3.33}
{"variant": "YHIYVALEEEIERNKESPVWAPVY", "note": "[F20W]", "protein stability index": 2.41}
{"variant": "YHIYVALEEEIERNKESPVYAPVY", "note": "[F20Y]", "protein stability index": 2.19}
{"variant": "YHIYVALEEEIERNKESPVSAPVY", "note": "[F20S]", "protein stability index": 2.78}
{"variant": "YHIYVALEEEIERNKESPVVAPVY", "note": "[F20V]", "protein stability index": 3.06}
{"variant": "YHIYVALEEEIERNKESPVTAPVY", "note": "[F20T]", "protein stability index": 2.57}
{"variant": "YHIYVALEEEIERNKESPVFAEVY", "note": "[P22E]", "protein stability index": 2.52}
{"variant": "YHIYVALEEEIERNKESPVFACVY", "note": "[P22C]", "protein stability index": 1.54}
{"variant": "YHIYVALEEEIERNKESPVFATVY", "note": "[P22T]", "protein stability index": 2.1}
{"variant": "YHIYVALEEEIERNKESPVFAFVY", "note": "[P22F]", "protein stability index": 2.91}
{"variant": "YHIYVALEEEIERNKESPVFAIVY", "note": "[P22I]", "protein stability index": 2.61}
{"variant": "YHIYVALEEEIERNKESPVFAMVY", "note": "[P22M]", "protein stability index": 3.18}
{"variant": "YHIYVALEEEIERNKESPVFARVY", "note": "[P22R]", "protein stability index": 2.06}
{"variant": "YHIYVALEEEIERNKESPVFAVVY", "note": "[P22V]", "protein stability index": 3.15}
{"variant": "YHIYVALEEEIERNKESPVFADVY", "note": "[P22D]", "protein stability index": 1.8}
{"variant": "YHIYVALEEEIERNKESPVFAWVY", "note": "[P22W]", "protein stability index": 1.87}
{"variant": "YHIYVALEEEIERNKESPVFASVY", "note": "[P22S]", "protein stability index": 1.55}
{"variant": "YHIYVALEEEIERNKESPVFAYVY", "note": "[P22Y]", "protein stability index": 1.77}
{"variant": "YHIYVALEEEIERNKESPVFAHVY", "note": "[P22H]", "protein stability index": 1.98}
{"variant": "YHIYVALEEEIERNKESPVFAKVY", "note": "[P22K]", "protein stability index": 2.14}
{"variant": "YHIYVALEEEIERNKESPVFAAVY", "note": "[P22A]", "protein stability index": 2.12}
{"variant": "YHIYVALEEEIERNKESPVFAGVY", "note": "[P22G]", "protein stability index": 1.76}
{"variant": "YHIYVALEEEIERNKESPVFAQVY", "note": "[P22Q]", "protein stability index": 1.98}
{"variant": "YHIYVALEEEIERNKESPVFANVY", "note": "[P22N]", "protein stability index": 1.68}
{"variant": "YHIYVALEEEIERNKESPVFSPVY", "note": "[A21S]", "protein stability index": 2.02}
{"variant": "YHIYVALEEEIERNKESPVFNPVY", "note": "[A21N]", "protein stability index": 2.31}
{"variant": "YHIYVALEEEIERNKESPVFDPVY", "note": "[A21D]", "protein stability index": 2.91}
{"variant": "YHIYVALEEEIERNKESPVFKPVY", "note": "[A21K]", "protein stability index": 2.8}
{"variant": "YHIYVALEEEIERNKESPVFHPVY", "note": "[A21H]", "protein stability index": 2.06}
{"variant": "YHIYVALEEEIERNKESPVFGPVY", "note": "[A21G]", "protein stability index": 2.43}
{"variant": "YHIYVALEEEIERNKESPVFPPVY", "note": "[A21P]", "protein stability index": 2.06}
{"variant": "YHIYVALEEEIERNKESPVFQPVY", "note": "[A21Q]", "protein stability index": 2.41}
{"variant": "YHIYVALEEEIERNKESPVFIPVY", "note": "[A21I]", "protein stability index": 1.87}
{"variant": "YHIYVALEEEIERNKESPVFEPVY", "note": "[A21E]", "protein stability index": 2.41}
{"variant": "YHIYVALEEEIERNKESPVFTPVY", "note": "[A21T]", "protein stability index": 2}
{"variant": "YHIYVALEEEIERNKESPVFWPVY", "note": "[A21W]", "protein stability index": 1.7}
{"variant": "YHIYVALEEEIERNKESPVFVPVY", "note": "[A21V]", "protein stability index": 1.76}
{"variant": "YHIYVALEEEIERNKESPVFYPVY", "note": "[A21Y]", "protein stability index": 1.49}
{"variant": "YHIYVALEEEIERNKESPVFRPVY", "note": "[A21R]", "protein stability index": 2.2}
{"variant": "YHIYVALEEEIERNKESPVFCPVY", "note": "[A21C]", "protein stability index": 1.72}
{"variant": "YHIYVALEEEIERNKESPVFFPVY", "note": "[A21F]", "protein stability index": 2.21}
{"variant": "YHIYVALEEEIERNKESPVFLPVY", "note": "[A21L]", "protein stability index": 1.58}
{"variant": "YHIYVALEEEIERNKESPVFMPVY", "note": "[A21M]", "protein stability index": 1.99}
{"variant": "YHIYVALEEEIERNKESPVFAPKY", "note": "[V23K]", "protein stability index": 2.09}
{"variant": "YHIYVALEEEIERNKESPVFAPIY", "note": "[V23I]", "protein stability index": 1.87}
{"variant": "YHIYVALEEEIERNKESPVFAPNY", "note": "[V23N]", "protein stability index": 1.78}
{"variant": "YHIYVALEEEIERNKESPVFAPPY", "note": "[V23P]", "protein stability index": 2.69}
{"variant": "YHIYVALEEEIERNKESPVFAPTY", "note": "[V23T]", "protein stability index": 1.83}
{"variant": "YHIYVALEEEIERNKESPVFAPMY", "note": "[V23M]", "protein stability index": 1.89}
{"variant": "YHIYVALEEEIERNKESPVFAPGY", "note": "[V23G]", "protein stability index": 2.1}
{"variant": "YHIYVALEEEIERNKESPVFAPEY", "note": "[V23E]", "protein stability index": 2.63}
{"variant": "YHIYVALEEEIERNKESPVFAPSY", "note": "[V23S]", "protein stability index": 1.85}
{"variant": "YHIYVALEEEIERNKESPVFAPAY", "note": "[V23A]", "protein stability index": 2.27}
{"variant": "YHIYVALEEEIERNKESPVFAPYY", "note": "[V23Y]", "protein stability index": 1.64}
{"variant": "YHIYVALEEEIERNKESPVFAPQY", "note": "[V23Q]", "protein stability index": 1.99}
{"variant": "YHIYVALEEEIERNKESPVFAPFY", "note": "[V23F]", "protein stability index": 1.78}
{"variant": "YHIYVALEEEIERNKESPVFAPCY", "note": "[V23C]", "protein stability index": 2.12}
{"variant": "YHIYVALEEEIERNKESPVFAPRY", "note": "[V23R]", "protein stability index": 2.87}
{"variant": "YHIYVALEEEIERNKESPVFAPWY", "note": "[V23W]", "protein stability index": 2.65}
{"variant": "YHIYVALEEEIERNKESPVFAPHY", "note": "[V23H]", "protein stability index": 1.84}
{"variant": "YHIYVALEEEIERNKESPVFAPDY", "note": "[V23D]", "protein stability index": 2.69}
{"variant": "YHIYVALEEEIERNKESPVFAPLY", "note": "[V23L]", "protein stability index": 1.77}
{"variants_of": "B2", "test": "protein stability index of a GFP-peptide fusion (GPS, HEK-293T) (PSI 1-6); higher = more stable", "settings": "c terminus: a fixed tail appended"}
{"variant": "INRADYCMECYPDNPANRSLVLPW", "note": "[P8M]", "protein stability index": 1.71}
{"variant": "INRADYCTECYPDNPANRSLVLPW", "note": "[P8T]", "protein stability index": 1.82}
{"variant": "INRADYCSECYPDNPANRSLVLPW", "note": "[P8S]", "protein stability index": 2.46}
{"variant": "INRADYCVECYPDNPANRSLVLPW", "note": "[P8V]", "protein stability index": 1.95}
{"variant": "INRADYCPECYPDNPANGSLVLPW", "note": "[R18G]", "protein stability index": 1.99}
{"variant": "INRADYCPECYPDNPANQSLVLPW", "note": "[R18Q]", "protein stability index": 1.99}
{"variant": "INRADYCPECYPDNPANHSLVLPW", "note": "[R18H]", "protein stability index": 2.17}
{"variant": "INRADYCPECYPDNPANSSLVLPW", "note": "[R18S]", "protein stability index": 2.27}
{"variant": "INRADYCPECYPDNPANPSLVLPW", "note": "[R18P]", "protein stability index": 2.38}
{"variant": "INRADYCPECYPDNPYNRSLVLPW", "note": "[A16Y]", "protein stability index": 2.67}
{"variant": "INRADYCPECYPDNPCNRSLVLPW", "note": "[A16C]", "protein stability index": 1.69}
{"variant": "INRADYCPECYPDNPTNRSLVLPW", "note": "[A16T]", "protein stability index": 2.06}
{"variant": "INRADYCPECYPDNPSNRSLVLPW", "note": "[A16S]", "protein stability index": 2.42}
{"variant": "INRADYCPECYPDNPHNRSLVLPW", "note": "[A16H]", "protein stability index": 1.71}
